{"source": "patent US20220195383A1", "about": "“METHOD FOR PRODUCING PLURIPOTENT STEM CELLS” (KANEKA CORPORATION, priority 2019, published 2022)", "key": {"[1]": {"test_system": "human iPS cell line 201B7", "assay": "Adhesion culture with addition of WNT3A protein into medium, quantitative real-time PCR", "type": "cell-based", "settings": "Line 201B7, day 5", "description": "(§1) These cells were lysed using TRIzol™ Reagent (Thermo Fisher Scientific K.K.). Total RNA was isolated and purified from a cell solution obtained by lysing with TRIzol™ Reagent using a PureLink (registered trademark) RNA Mini kit (Thermo Fisher Scientific K.K.). A concentration of the purified RNA was measured using BioSpec-nano (Shimadzu Corporation), and 40 ng was separated. 2 μL of ReverTra Ace (registered trademark) qPCR RT Master Mix (TOYOBO CO., LTD.) and RNase Free dH2O were added to the separated RNA to prepare 10 μL. cDNA synthesis was performed using SimpliAmp Thermal Cycler (Thermo Fisher Scientific K.K.). […] A synthesized cDNA solution was diluted 100-fold with 10 mM Tris-HCl pH 8.0 (NACALAI TESQUE, INC.) and added to a 384-well PCR plate (Thermo Fisher Scientific K.K.) at 5 μL/well. KOD SYBR® qPCR Mix (TOYOBO CO., LTD.), a Forward primer prepared to 50 μM, a Reverse primer prepared to 50 μM, and DEPC-treated water (NACALAI TESQUE, INC.) were mixed at a ratio of 100:1:1:48. This mixed solution was added to the above-mentioned 384-well PCR plate at 15 μL/well and mixed. For the primers, bACT, OCT4, SOX2, Nanog, Brachyury, and SOX17 were used. The 384-well PCR plate was subjected to centrifugal separation to remove air bubbles in the wells, and quantitative real-time PCR analysis was performed using QuantStudio 7 Flex Real-Time PCR System (Thermo Fisher Scientific K.K.).\n(§2) The human iPS cell lines 201B7 and RPChiPS771-2 maintenance-cultured in the procedure of Step 1 of Reference Example 3 were treated with Accutase for 3 to 5 minutes to release the cells from the dish. The cells were dispersed into single cells by pipetting. These cells were suspended in a StemFit (registered trademark) AK02N medium containing Y-27632 at a final concentration of 10 μM. A part of the cells was stained with trypan blue to measure the number of living cells. A cell suspension was prepared so that it contained 4.6×10^4 cells per mL using the StemFit (registered trademark) AK02N medium containing Y-27632 a final concentration of 10 μM. 2 mL of the cell suspension per well was seeded in a 6-well plate for cell culture (Sumitomo Bakelite Co., Ltd.) coated with 0.5 μg of Vitronectin per 1 cm^2. WNT3A protein (R&D Systems, Inc.) was added to each of the wells so that final concentrations were 10 pg/mL, 100 pg/mL, 1 ng/mL, 10 ng/mL, and 100 ng/mL, and adhesion culture was performed at 37° C. in a 5% CO2 environment. The day when the cells were seeded was defined as day 0 of the culture. The adhesion culture was performed until day 5 of the culture. Medium exchange was performed every day. […] Phase-contrast images of the cells were acquired using a phase-contrast microscope on day 5 of the culture. FIG. 8 and FIG. 9 show the acquired phase-contrast images. Furthermore, on day 5 of the culture, the culture supernatant was recovered from the wells. 0.5 mL of Accutase was added per well to treat the cells for 3 to 5 minutes. The cells were released from the wells, and were dispersed into single cells by pipetting. These cells were suspended in a StemFit (registered trademark) AK02N medium containing Y-27632 at a final concentration of 10 μM. A part of the cells was stained with trypan blue to measure the number of living cells.\n(§3) The phase-contrast images on day 5 of the culture were analyzed with image analysis software (for example, ImageJ), and a proportion of a surface area of cells with respect to a culture area was calculated. From this value and the culture area (9.2 cm^2/well), an area in which the cell surface was in contact with the medium was calculated. Furthermore, a surface area (cm^2) in contact with the medium per cell was calculated from an area in which the cell surface was in contact with the medium and from the number of living cells on day 5 of the culture. […]"}, "[2]": {"test_system": "human iPS cell line RPChiPS771-2", "assay": "Adhesion culture with addition of WNT3A protein into medium, quantitative real-time PCR", "type": "cell-based", "description": "as §1, §2, §3"}, "[3]": {"settings": "WNT3A protein in medium 10 pg/mL"}, "[4]": {"settings": "WNT3A protein in medium 100 pg/mL"}, "[5]": {"settings": "WNT3A protein in medium 1 ng/mL"}, "[6]": {"settings": "WNT3A protein in medium 10 ng/mL"}, "[7]": {"settings": "WNT3A protein in medium 100 ng/mL"}, "[8]": {"settings": "WNT3A protein in medium 10 pg/mL, adhesion culture, Line RPChiPS771-2, day 5"}, "[9]": {"settings": "WNT3A protein in medium 100 pg/mL, adhesion culture, Line RPChiPS771-2, day 5"}, "[10]": {"settings": "WNT3A protein in medium 1 ng/mL, adhesion culture, Line RPChiPS771-2, day 5"}, "[11]": {"settings": "WNT3A protein in medium 10 ng/mL, adhesion culture, Line RPChiPS771-2, day 5"}, "[12]": {"settings": "WNT3A protein in medium 100 ng/mL, adhesion culture, Line RPChiPS771-2, day 5"}, "[13]": {"settings": "adhesion culture with added WNT3A, lines 201B7 and RPChiPS771-2, day 5"}}}
{"molecule": "WNT3A protein: WNT3A protein (R&D Systems, Inc.) added to the adhesion culture medium at 10 pg/mL to 100 ng/mL (protein, UniProt P56704 19-352, looked up) Protein Wnt-3a: SYPIWWSLAVGPQYSSLGSQPILCASIPGLVPKQLRFCRNYVEIMPSVAEGIKIGIQECQHQFRGRRWNCTTVHDSLAIFGPVLDKATRESAFVHAIASAGVAFAVTRSCAEGTAAICGCSSRHQGSPGKGWKWGGCSEDIEFGGMVSREFADARENRPDARSAMNRHNNEAGRQAIASHMHLKCKCHGLSGSCEVKTCWWSQPDFRAIGDFLKDKYDSASEMVVEKHRESRGWVETLRPRYTYFKVPTERDLVYYEASPNFCEPNPETGSFGTRDRTCNVSSHGIDGCDLLCCGRGHNARAERRREKCRCVFHWCCYVSCQECTRVYDVHTCK", "values": [{"measurement": "Relative gene expression level with respect to ACTB in 2^−Λ Ct, Nanog", "setting": "[1]; [3]", "value": "2.59 × 10^−2"}, {"measurement": "Relative gene expression level with respect to ACTB in 2^−Λ Ct, OCT4", "setting": "[1]; [3]", "value": "2.27 × 10^−1"}, {"measurement": "Relative gene expression level with respect to ACTB in 2^−Λ Ct, SOX2", "setting": "[1]; [3]", "value": "2.44 × 10^−2"}, {"measurement": "Relative gene expression level with respect to ACTB in 2^−Λ Ct, Nanog", "setting": "[1]; [4]", "value": "2.91 × 10^−2"}, {"measurement": "Relative gene expression level with respect to ACTB in 2^−Λ Ct, OCT4", "setting": "[1]; [4]", "value": "2.63 × 10^−1"}, {"measurement": "Relative gene expression level with respect to ACTB in 2^−Λ Ct, SOX2", "setting": "[1]; [4]", "value": "2.75 × 10^−2"}, {"measurement": "Relative gene expression level with respect to ACTB in 2^−Λ Ct, Nanog", "setting": "[1]; [5]", "value": "2.82 × 10^−2"}, {"measurement": "Relative gene expression level with respect to ACTB in 2^−Λ Ct, OCT4", "setting": "[1]; [5]", "value": "2.50 × 10^−1"}, {"measurement": "Relative gene expression level with respect to ACTB in 2^−Λ Ct, SOX2", "setting": "[1]; [5]", "value": "2.57 × 10^−2"}, {"measurement": "Relative gene expression level with respect to ACTB in 2^−Λ Ct, Nanog", "setting": "[1]; [6]", "value": "2.96 × 10^−2"}, {"measurement": "Relative gene expression level with respect to ACTB in 2^−Λ Ct, OCT4", "setting": "[1]; [6]", "value": "2.56 × 10^−1"}, {"measurement": "Relative gene expression level with respect to ACTB in 2^−Λ Ct, SOX2", "setting": "[1]; [6]", "value": "2.55 × 10^−2"}, {"measurement": "Relative gene expression level with respect to ACTB in 2^−Λ Ct, Brachyury", "setting": "[1]; [7]", "value": "3.14 × 10^−4"}, {"measurement": "Relative gene expression level with respect to ACTB in 2^−Λ Ct, Nanog", "setting": "[1]; [7]", "value": "6.13 × 10^−2"}, {"measurement": "Relative gene expression level with respect to ACTB in 2^−Λ Ct, OCT4", "setting": "[1]; [7]", "value": "3.60 × 10^−1"}, {"measurement": "Relative gene expression level with respect to ACTB in 2^−Λ Ct, SOX2", "setting": "[1]; [7]", "value": "2.08 × 10^−2"}, {"measurement": "Relative gene expression level with respect to ACTB in 2^−Λ Ct, SOX17", "setting": "[1]; [7]", "value": "4.03 × 10^−5"}, {"measurement": "Relative gene expression level with respect to ACTB in 2^−Λ Ct, Nanog", "setting": "[2]; [8]", "value": "5.06 × 10^−2"}, {"measurement": "Relative gene expression level with respect to ACTB in 2^−Λ Ct, OCT4", "setting": "[2]; [8]", "value": "4.06 × 10^−1"}, {"measurement": "Relative gene expression level with respect to ACTB in 2^−Λ Ct, SOX2", "setting": "[2]; [8]", "value": "2.64 × 10^−2"}, {"measurement": "Relative gene expression level with respect to ACTB in 2^−Λ Ct, Nanog", "setting": "[2]; [9]", "value": "5.30 × 10^−2"}, {"measurement": "Relative gene expression level with respect to ACTB in 2^−Λ Ct, OCT4", "setting": "[2]; [9]", "value": "4.44 × 10^−1"}, {"measurement": "Relative gene expression level with respect to ACTB in 2^−Λ Ct, SOX2", "setting": "[2]; [9]", "value": "2.77 × 10^−2"}, {"measurement": "Relative gene expression level with respect to ACTB in 2^−Λ Ct, Nanog", "setting": "[2]; [10]", "value": "4.88 × 10^−2"}, {"measurement": "Relative gene expression level with respect to ACTB in 2^−Λ Ct, OCT4", "setting": "[2]; [10]", "value": "3.87 × 10^−1"}, {"measurement": "Relative gene expression level with respect to ACTB in 2^−Λ Ct, SOX2", "setting": "[2]; [10]", "value": "2.89 × 10^−2"}, {"measurement": "Relative gene expression level with respect to ACTB in 2^−Λ Ct, Nanog", "setting": "[2]; [11]", "value": "5.53 × 10^−2"}, {"measurement": "Relative gene expression level with respect to ACTB in 2^−Λ Ct, OCT4", "setting": "[2]; [11]", "value": "4.42 × 10^−1"}, {"measurement": "Relative gene expression level with respect to ACTB in 2^−Λ Ct, SOX2", "setting": "[2]; [11]", "value": "2.77 × 10^−2"}, {"measurement": "Relative gene expression level with respect to ACTB in 2^−Λ Ct, Brachyury", "setting": "[2]; [12]", "value": "3.07 × 10^−4"}, {"measurement": "Relative gene expression level with respect to ACTB in 2^−Λ Ct, Nanog", "setting": "[2]; [12]", "value": "6.65 × 10^−2"}, {"measurement": "Relative gene expression level with respect to ACTB in 2^−Λ Ct, OCT4", "setting": "[2]; [12]", "value": "4.56 × 10^−1"}, {"measurement": "Relative gene expression level with respect to ACTB in 2^−Λ Ct, SOX2", "setting": "[2]; [12]", "value": "1.66 × 10^−2"}, {"measurement": "Relative gene expression level with respect to ACTB in 2^−Λ Ct, SOX17", "setting": "[2]; [12]", "value": "1.11 × 10^−3"}, {"measurement": "Amount of WNT3A protein contained in unit of medium in contact with unit area of cell surface at which expression of the differentiation marker gene was detected", "setting": "[2]; [13]", "value": "≥ 5.2×10^4 μg/mL·cm^2"}, {"measurement": "Amount of WNT3A protein contained in unit of medium in contact with unit area of cell surface at which expression of the differentiation marker gene was not detected", "setting": "[2]; [13]", "value": "≤ 6.7×10^3 μg/mL·cm^2"}]}
